Results reported in patent publication US20240285749A1.

Target: HA ectodomain trimer (UniProt Q289M7)
Assay: Octet

Row | Substance | Kd (scFv) [nM] | Kd (Fab) [nM]
1 | F10 | 0.063 | –
2 | CR6261 | – | 0.39
